From patent US20090011988A1 (Genentech, published 2009)
Positions of bridges follow the written chain, without caps; N, C: chain ends. No end group written: not given here. suc = not defined here

Assays:
[1] = biological target: IGF-1 G1S-A70V displayed on phage (human; bacteriophage M13); test: competitive phage ELISA: phage on an IGFBP-3-coated plate (1 µg/ml), competed by soluble IGFBP-3; OD492, mean ± SD, n=2
[2] = biological target: IGF-1 G1S-A70V displayed on phage (human; bacteriophage M13); test: competitive phage ELISA: phage displaying G1S-A70V IGF-1 on an IGFBP-3-coated plate (1 µg/ml), competed by soluble IGFBP-3; OD492
[3] = biological target: T1, recombinant human IGFBP-3 (human, UniProt P17936 28-291); test: phage ELISA (IGF-blocking phage assay): g8 peptide-phage at a 50-fold dilution on an IGFBP-3-coated plate, without and with IGF-1; OD492
Procedure: (§1) The plates were then washed ten times, as above, and a solution of rabbit anti-phage antibody mixed with a goat-anti-rabbit conjugate of horseradish peroxidase was added. After an incubation of 1 hour at room temperature, the plates were developed with a chromogenic substrate, o-phenylenediamine (Sigma). The reaction was stopped with addition of ½ volume of 2.5 M H₂SO₄. Optical density at 490 nm was measured on a spectrophotometric plate reader.
In each case, the phagemid clone was grown from a single colony overnight at 37° C. in a culture volume of 5 ml. The phage particles were precipitated and resuspended in 0.5 ml of PBS buffer.

human IGFBP-1 [4] = biological target: T2, human IGFBP-1 (human, UniProt P08833 26-259); test: ELISA inhibition assay
T2 sequence (looked up): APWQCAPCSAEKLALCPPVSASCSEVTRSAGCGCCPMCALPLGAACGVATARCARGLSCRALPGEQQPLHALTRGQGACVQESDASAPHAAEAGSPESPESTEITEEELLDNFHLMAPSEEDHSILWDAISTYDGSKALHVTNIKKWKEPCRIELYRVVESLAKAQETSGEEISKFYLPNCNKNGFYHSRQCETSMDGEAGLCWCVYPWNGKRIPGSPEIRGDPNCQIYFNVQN

[5] = biological target: T1, recombinant human IGFBP-3; test: phage ELISA (IGF-blocking phage assay): titration of g8 peptide-phage on an IGFBP-3-coated plate in the presence of 100 nM IGF-1; OD492
Procedure: as §1

[6] = biological target: T1, recombinant human IGFBP-3; test: BIAcore competition, IGFBP-3 to IGF-1
Procedure: (§2) IGF-1 was immobilized on a dextran chip for inhibition assays using a BIACORE™ 2000 surface-plasmon-resonance device (BIAcore, Inc., Piscataway, N.J.) to measure free binding protein. IGF-1 was biotinylated as described above, and injected over a chip to which streptavidin had been coupled (BIAcore, Inc.) to give 400 to 800 RU (response units) of immobilized IGF-1. […] After incubation for >1 hour at room temperature, an aliquot of 20:L was injected at a flow rate of 20:L/min over the IGF-1 chip.

[7] = biological target: T1, recombinant human IGFBP-3; test: BIAcore competition, IGFBP-3 to immobilized IGF-2
Procedure: as §2, with “IGF-2” for “IGF-1”, “approximately 1500” for “400 to 800”, “RU” for “RU (response units)”, “IGF-2.” for “IGF-1.”, “[…]” for “20:L”, “[…]” for “20:L/min”

[8] = biological target: T1, recombinant human IGFBP-3; test: BIAcore competition, IGFBP-3 to immobilized IGF-1
Procedure: as §2, with “chip. […]” for “chip.”

[9] = biological target: IGF-1 G1S-A70V displayed on phage (human; bacteriophage M13); test: competitive phage ELISA: phage on an IGFBP-3-coated plate (1 µg/ml), competed by soluble IGFBP-1; OD492, mean ± SD, n=2
[10] = biological target: IGF-1 G1S-A70V displayed on phage (human; bacteriophage M13); test: competitive phage ELISA: phage displaying G1S-A70V IGF-1 on an IGFBP-1-coated plate (1 µg/ml), competed by soluble IGFBP-1; OD492
[11] = biological target: T1, recombinant human IGFBP-3; test: phage ELISA on IGFBP-3 plate, competitor IGF-1
human IGFBP-1 [12] = biological target: T2, human IGFBP-1; test: BIAcore, IGFBP-1 coupled to chip
human IGFBP-1 [13] = biological target: T2, human IGFBP-1; test: BIAcore kinetics, IGFBP-1 coupled to chip
Procedure: For each dilution of peptides, a global fit of the sensorgram data was performed using a 1:1 Langmuir binding model.

[14] = biological target: T1, recombinant human IGFBP-3; test: BIAcore competition, IGFBP-3 to IGF-1; remark: listed apart in the source
[15] = biological target: T1, recombinant human IGFBP-3; test: phage ELISA: titration of g8 peptide-phage on an IGFBP-3-coated plate without IGF-1; OD492
Procedure: as §1

T1 sequence (P17936 28-291 limits assumed): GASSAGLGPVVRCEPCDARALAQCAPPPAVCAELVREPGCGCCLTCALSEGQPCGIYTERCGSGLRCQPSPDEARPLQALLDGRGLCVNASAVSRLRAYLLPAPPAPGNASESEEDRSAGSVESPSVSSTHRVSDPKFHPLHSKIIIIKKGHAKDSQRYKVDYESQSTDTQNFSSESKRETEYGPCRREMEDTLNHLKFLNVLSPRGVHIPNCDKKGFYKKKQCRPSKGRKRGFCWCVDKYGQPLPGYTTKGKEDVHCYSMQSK

Molecule “recombinant human IGFBP-3 (from UniProt P17936 28-291)” has an IC50 (read off the curve) [1] of 0.7 nM and an IC50 [2] of 0.5 nM.

B1: 4D3.12 (peptide)
peptide displayed on M13 phage as a fusion to g8p: AEWAECWIAGDQLLCVGKDN
modifications: not fully specified (bridges); cysteine pairing not given here; also: displayed on phage as g8p fusion
notes: whole phage particle in the assay; also called peptide-phage clone 4D3.12 (g8 display)
B1: binds [3].

B2: BP1-26 (peptide)
peptide: CRAGPLQWRCEKYF
modifications: disulfide 1-10
notes: also called BP1-16 L9R
B2: no binding (tested: >570-fold the IC50 of BP1-16) (human IGFBP-1 [4]).

B3: BP1-32 (peptide)
peptide: CRAGPRQWLCEKYF
modifications: disulfide 1-10
notes: also called BP1-16 L6R
B3: no binding (tested: >1000-fold the IC50 of BP1-16) (human IGFBP-1 [4]).

B4: peptide-phage clone 4D3.3 (g8 display) (peptide, not shown: large carriers)
chain: SEEVCWPVAEWYLCNMWGR
modifications: not fully specified (bridges); cysteine pairing not given here; also: polyvalent display on M13 phage, fused via linker to g8p
notes: polyvalent display on M13 phage
B4: binds [5].

B5: peptide-phage clone 4B3.4 (g8 display) (peptide, not shown: large carriers)
chain: DMGVCADGPWMYVCEWTE
notes: as for B4
B5: binds [5].

B6: BP3-01-ox (peptide)
peptide: SEEVCWPVAEWYLCNMWG
modifications: disulfide 5-14
With B6 the IC50 [6] was 2000 nM, the IC50 [7] was 920 nM and the IC50 [8] was 2000 nM.

B7: human IGFBP-1 (protein, UniProt P08833 26-259, looked up)
chain: APWQCAPCSAEKLALCPPVSASCSEVTRSAGCGCCPMCALPLGAACGVATARCARGLSCRALPGEQQPLHALTRGQGACVQESDASAPHAAEAGSPESPESTEITEEELLDNFHLMAPSEEDHSILWDAISTYDGSKALHVTNIKKWKEPCRIELYRVVESLAKAQETSGEEISKFYLPNCNKNGFYHSRQCETSMDGEAGLCWCVYPWNGKRIPGSPEIRGDPNCQIYFNVQN
With B7 the IC50 (read off the curve) [9] was 8 nM and the IC50 [10] was 8.5 nM.

B8: 4D3.8 (peptide)
peptide displayed on M13 phage as a fusion to g8p: SEEVCWPVAEWYLCNILGP
modifications: not fully specified (bridges); cysteine pairing not given here; also: displayed on phage as g8p fusion
notes: whole phage particle in the assay; also called peptide-phage clone 4D3.8 (g8 display)
B8: binds [3].

B9: peptide-phage clone 23A3.3 (g8 display) (peptide, not shown: large carriers)
chain: SGGAIYWPVEQFIAFMAVGK
notes: as for B4
For B9, the “% inhibition of phage binding by 100 nM IGF-1” value (“% inhibition of phage binding” for short) [11] was about 20%.

B10: peptide-phage clone 23A3.5 (g8 display) (peptide, not shown: large carriers)
chain: SGGAIYMPVEQFIAFMAVGK
notes: as for B4
In the case of B10, the “% inhibition of phage binding” value [11] is reported as about 20%.

B11: BP1-02 (peptide)
peptide: SEVGCRAGPLQWLCEKYFG
modifications: disulfide 5-14
For B11, the “half-life for peptide dissociation” value (human IGFBP-1 [12]) was about 28 s, the koff (human IGFBP-1 [12]) was 0.0503 s⁻¹ and the kon (human IGFBP-1 [12]) was 230000 M⁻¹ s⁻¹. For the same molecule, the Kd (human IGFBP-1 [13]) was 210 nM.

B12: peptide-phage clone 4D3.11 (g8 display) (peptide, not shown: large carriers)
chain: VAWEVCWDRHDQGYICTTDS
notes: as for B4
For B12, the “% inhibition of phage binding” value [11] was 5%.

B13: BP3-15 (peptide)
peptide: SEEVCWPVAEWYLCN
modifications: disulfide 5-14
In the case of B13, the IC50 [6] is reported as 720 nM, the IC50 [7] is reported as 780 nM and the IC50 [8] is reported as 750 nM.

B14: BP3-17 (peptide)
peptide: VCWPVAEWYLCN
modifications: disulfide 2-11
B14 showed an IC50 [7] of 5100 nM and an IC50 [8] of 9000 nM.

B15: 4D3.9 (peptide)
peptide displayed on M13 phage as a fusion to g8p: ETVANCDCYMDLCLCYGSDR
modifications: not fully specified (bridges); cysteine pairing not given here; also: displayed on phage as g8p fusion
notes: whole phage particle in the assay; also called peptide-phage clone 4D3.9 (g8 display)
B15: binds [3].

B16: BP3-108 (peptide)
peptide: suc-IPVSPDWFVCQ-NH2
modifications: reading uncertain
notes: also called phage parent t4H3.9
Work on B16 yielded an IC50 [14] of 20 µM.

B17: peptide-phage clone 4D3.5 (g8 display) (peptide, not shown: large carriers)
chain: WFKTVCYEWEDEVQCYTLEE
modifications: not fully specified (bridges); cysteine pairing not given here; also: polyvalent display on M13 phage, fused via linker to g8p
notes: as for B4
B17: binds [15].

B18: BP3-107 (peptide)
peptide: suc-CQLVRPDLLLCQ-NH2
modifications: disulfide 1-11; reading uncertain
notes: also called phage parent t4H3.6
In the case of B18, the IC50 [14] is reported as 100 µM.

B19: peptide-phage clone 4D3.4 (g8 display) (peptide, not shown: large carriers)
chain: RVGAYISCSETECWVEDLLD
modifications: not fully specified (bridges); cysteine pairing not given here; also: polyvalent display on M13 phage, fused via linker to g8p
notes: as for B4
B19: binds [15].

B20: peptide-phage clone 4C3.2 (g8 display) (peptide, not shown: large carriers)
chain: ELDGWVCIKVGEQNLCYLAE
modifications: not fully specified (bridges); cysteine pairing not given here; also: polyvalent display on M13 phage, fused via linker to g8p
notes: as for B4
B20: binds [3].

B21: peptide-phage clone 4A3.1 (g8 display) (peptide, not shown: large carriers)
chain: SGTACYGGPEWWCCSLAGSP
modifications: not fully specified (bridges); also: displayed on M13 g8p phage, disulfide pairing of the three Cys not given here
notes: as for B4
B21: binds [5].
